± gives the standard deviation.
Assay: protein stability index of a GFP-peptide fusion (GPS, HEK-293T) (PSI 1-6); higher = more stable
[1] = treatment: DMSO, c terminus: a fixed tail appended
[2] = treatment: MLN4924 1 uM, 8 h, c terminus: a fixed tail appended
[3] = treatment: DMSO, c terminus: native
[4] = treatment: MLN4924 1 uM, 8 h, c terminus: native
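Also: 24-mer peptide tiles fused after GFP, lentivirally expressed, FACS-sorted into six equal bins by GFP/DsRed ratio, decoded by Illumina sequencing, PSI is the read-weighted mean bin number.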

Sequence	protein stability index [1]	protein stability index [2]	protein stability index [3]	protein stability index [4]
PKAKAKAKAKAKDQTKAQAAAPAS [RPL29]	5.2 ± 0.22	5.21 ± 0.072		
LQKDLETRPTQHELRLYKQQVKKL [CEP70]	4.19 ± 0.2	4.42 ± 0.37		
KLDPTLSSCFFIESCGAQVPVEGS	3.02 ± 0.41	3.04 ± 0.5		
CSSFMAPPVTDLGELRRRPGDMKT [CPOX]	3.43 ± 0.3	3.31 ± 0.48		
GKVLQNKQAEICQLEEKLEIANED [CCDC89]	5.26 ± 0.37	5.44 ± 0.25		
AAMFGGSFVESANSEVYLPNINKI [RHOBTB1]	2.93 ± 0.23	2.93 ± 0.18		
LMGEIAKATFMYEQFPELMNMLWS [CLINT1]	2.61 ± 0.62	2.33 ± 0.32		
KSTWPRYSKPGLSMRLLESKKGLS [TCF25]	2.92 ± 0.34	3.12 ± 0.17		
GWGTVFSLESEEEEYPGITAEDSN [BCL2L13]	5.05 ± 0.23	5.03 ± 0.38		
MEAMAASTSLPDPGDFDRNVPRIC [VDR]	4.53 ± 0.11	4.53 ± 0.19		
KEVGSHFDDFVTNLIEKSASLDNG [SOAT1]	4.19 ± 0.26	4.46 ± 0.37		
LQKKLDNLQCLYCEKTFRDKNTLK [ZNF277]	2.64 ± 0.25	2.86 ± 0.3		
QRFRQFQYREAAGPHEAFNKLWEL [ZNF449]	2.17 ± 0.18	2.33 ± 0.19		
ELDILPIHPPSGNSDLDPDAQNPM [BTBD10]	5.45 ± 0.16	5.38 ± 0.16		
HDYIVRSGERWLERYEIDSLIGKG [DYRK1B]	2.95 ± 0.49	3.11 ± 0.38		
KVNQNQAKRCTVIGGSGFLGQHMV [NSDHL]	2.22 ± 0.21	2.07 ± 0.2		
NRPSFDAILYYYQSGGRLRRPVNV [KCNA1]	2.24 ± 0.085	2.37 ± 0.14		
LVKNLKDTLGLGKTRRKTSARDAS [NCK2]	3.19 ± 0.38	3.35 ± 0.3		
AKVNILLVENDQQLQKILSIPQSS [ACSBG2]	2.21 ± 0.17	2.07 ± 0.18		
SCKLVRDKITGQSLGYGFVNYSDP [ELAVL3]	2.4 ± 0.19	2.5 ± 0.37		
GPGIPPLMPGMPPGMPPPVPRPGI [ZNF207]	4.29 ± 0.23	4.35 ± 0.33		
QVDVRFFGHHHQRAWIPSENIQDI [ZMYND11]	2.74 ± 0.22	2.94 ± 0.17		

Sequence	protein stability index [1]	protein stability index [2]	protein stability index [3]	protein stability index [4]
TDFYLIFNDVAKFLKQGDSADETT [CMTM3]	2.75 ± 0.31	2.6 ± 0.33		
RPFDCPVCNKKFKMKHHLTEHMKT [ZBTB22]	2.77 ± 0.23	3.47 ± 0.53		
YSYVVSRPQPRGLLGWGYYLIMLP [FAF2]	2.89 ± 0.57	2.16 ± 0.37		
QQHRQGRSHHLEMVIQLLAIMCVS [PTGFR]	2.61 ± 0.51	2.12 ± 0.44		
RHLNDDDVTGSVKSERRNLLEDDS [VAMP4]	5.28 ± 0.2	5.42 ± 0.19		
GQSVTAVGRIIAPLLSGVAQEVSP [MFSD9]	3.39 ± 0.19	3.44 ± 0.19		
KIKDEVHPEVKCVGSVALTALVTV [C8orf76]	2.61 ± 0.26	2.11 ± 0.85		
DHIIEKKRTIIPTLVEAIKEQDGR [DFFB]	4.63 ± 0.24	4.68 ± 0.2		
LLLLLLASLLPSARLASPLPREEE [ADAMTS4]	2.56 ± 0.07	3.08 ± 0.55		
GNFDWEAIFDAGTLGGELGALEAL [FOXJ1]	4.15 ± 0.26	4.17 ± 0.34		
AGSRQALSFEVPPCNYDPEKWIQ			2.69 ± 0.59	3.35 ± 0.51
LENLCENASTLRTINIKCHVHDPH [FBXO39]	3.59 ± 0.27	3.59 ± 0.036		
VHRLDLILCNKTAYQEVFKPENIS [SMG5]	2.12 ± 0.48	2.15 ± 0.4		
MSWEKEEGKSRHVDFQCVKSKSIT [BTBD10]	4.48 ± 0.085	4.42 ± 0.2		
HKSAFNDWFSGHLNFQIEHHLFPT [FADS1]	2.11 ± 0.18	2.07 ± 0.41		
RCMQCDAKFDFLTRKHHCRRCGKC [ZFYVE21]	3.94 ± 0.34	4.3 ± 0.3		
PDLVKGPWTKEEDQKVIELVKKYG [MYBL2]	3.86 ± 0.22	3.99 ± 0.21		
AEYPANGSGADRIYDLNIPAFVKF [NCK2]	2.88 ± 0.33	2.7 ± 0.29		
DASVQPGPFRTLLQFLYTGQLDEK [RHOBTB1]	2.51 ± 0.33	2.72 ± 0.3		
LEKGLEPEPQVPGPAHGPAQEEPW [ZNF232]	5.35 ± 0.46	5.35 ± 0.25		
KDIAPEKQLLNSAVIAQQRRKPDP [DLC1]	5 ± 0.086	5.25 ± 0.17		
WRITNAKGDVEEVQGPGVVGEFPI [FBXO3]	3.75 ± 0.34	3.84 ± 0.48		

Sequence	protein stability index [1]	protein stability index [2]	protein stability index [3]	protein stability index [4]
QSDEEQDSVKVALLETNPYLLALT [CLPTM1]	3.92 ± 0.19	4.16 ± 0.3		
IQAEERLDMEKRRCRQSLEDSESL [LRRC45]	5.08 ± 0.27	5.16 ± 0.1		
EREEEDDALDSEGRDSEGPAEGEG [KCNG1]	5.55 ± 0.29	5.74 ± 0.12		
MRPPMPPHGQYGGHHQGMPGYLPG [ZNF207]	3.23 ± 0.3	3.29 ± 0.18		
DAAAILLDEQNKRPCRKFLLTGQC [ZMAT5]	2.98 ± 0.45	3 ± 0.59		
CKSGAAAKGGFSGCSAVLSGGSSS [KRT71]	3.26 ± 0.46	3.44 ± 0.066		
EIELQAQHNLRDSLENTLTESEAH [KRT34]	5.3 ± 0.27	5.18 ± 0.16		
PSDPPAMSPGPLDALSSPTSVQEA [C2CD2L]	5.54 ± 0.18	5.42 ± 0.2		
TWASPAEVVDLTLDEDSRRKYLL [C18orf25]			4.49 ± 0.44	4.68 ± 0.53
RACSHLIRLMQRCWQGDPRVRPTF [RIPK4]	2.87 ± 0.45	2.83 ± 0.2		
HQDVPSQDDSKPTQRQFTILNFND [AASDHPPT]	4.59 ± 0.27	4.76 ± 0.32		
HFRHPKRSVSLSMRKSGAMKKGGI [BNIP3L]	3.51 ± 0.36	3.32 ± 0.35		
ATALAPLQTDHYAALLGSNSESWG [SPSB2]	3.31 ± 0.32	3.28 ± 0.14		
MVQLDSIEDLEVTCTWKLPTLAKF [PRAME]	2.6 ± 0.45	2.75 ± 0.64		
LLGLRTFVAFAAKLWSFFIYLLRR [CTDNEP1]	4.28 ± 0.38	4.16 ± 0.3		
SLGSESEEEEEFYDADEETQMIK [SLC22A15]			5.01 ± 0.35	4.92 ± 0.37
SKAVFLWNMDKYTMIRKLEGHHHD [WSB1]	2.24 ± 0.16	2.24 ± 0.33		
DGTFSPVTLALFFVLYFLLACWTY [CLCN6]	3.07 ± 0.34	2.9 ± 0.21		
QRPRFITSGGSNIIYVASNHFVWR [VPS39]	2.12 ± 0.23	2.49 ± 0.25		
RELESREAELRRRDTFYKEQLERI [CHCHD6]	4.56 ± 0.12	4.87 ± 0.39		
PTRNDLESGLGHFSLRVHTGCHKK	4.06 ± 0.18	4.11 ± 0.18		

Reference: the supplement of paper PMC10567573
